# Test results reported in PMC3858362, “A Soluble Fucose-Specific Lectin from Aspergillus fumigatus Conidia - Structure, Specificity and Possible Role in Fungal Pathogenicity” (PLoS ONE, 2013).
# Target: the molecule itself
# Experiment: AUC; sedimentation velocity; AFL 0.04-0.30 mg/ml in 20 mM Tris/HCl, 300 mM NaCl, pH 7.4; 20 °C, 42,000 rpm; continuous c(s) analysis in Sedfit
protein,measurement,value
"Aspergillus fumigatus lectin (AFL), recombinant (natural protein, Fucose-specific lectin AFL of Aspergillus fumigatus, gene AFUA_5G14740 (Af293 genome); cloned from a commercial cDNA library of A. fumigatus ATCC 13073 with primers from the start ATG to an in-frame stop codon; 314 aa long without the initial Met; Cloned NdeI/HindIII into pET29a with its own stop codon; no tag is mentioned; also called rAFL; AfuFleA) MSTPGAQQVLFRTGIAAVNSTNHLRVYFQDVYGSIRESLYEGSWANGTEKNVIGNAKLGSPVAATSKELKHIRVYTLTEGNTLQEFAYDSGTGWYNGGLGGAKFQVAPYSCIAAVFLAGTDALQLRIYAQKPDNTIQEYMWNGDGWKEGTNLGGALPGTGIGATSFRYTDYNGPSIRIWFQTDDLKLVQRAYDPHKGWYPDLVTIFDRAPPRTAIAATSFGAGNSSIYMRIYFVNSDNTIWQVCWDHGKGYHDKGTITPVIQGSEVAIISWGSFANNGPDLRLYFQNGTYISAVSEWVWNRAHGSQLGRSALPPA",stoichiometry N,2
